Values belong to the substance of their own block, whether it stands above or below them.
Assays:
[1] = biological target: integrin β1 subunit (human) (UniProt P05556)
Human E-cadherin (human) [2] = biological target: Human E-cadherin (human)
Human E-cadherin (human) [3] = biological target: Human E-cadherin (human); remark: listed apart in the source
Human E-cadherin (human) [4] = biological target: Human E-cadherin (human); remark: listed apart in the source
Human E-cadherin (human) [5] = biological target: Human E-cadherin (human); remark: listed apart in the source

- inhibition of IEL adhesion to the 16E6.A5 epithelial cell monolayer [1]: 21%
Substance: 4B4 (antibody)

- adhesion of COS-7 transfectants to 16E6.A5 monolayers (percent bound) (Human E-cadherin (human) [2]): 9%
- adhesion of COS-7 transfectants to L-M E-cadherin transfectants (percent bound) (Human E-cadherin (human) [3]): 16%
Substance: α^4β7 integrin (from UniProt P13612) (receptor)

- adhesion of COS-7 transfectants to 16E6.A5 monolayers (Human E-cadherin (human) [2]): 267%
- adhesion of IEL to L-M monolayers (percent of IEL bound) (Human E-cadherin (human) [4]): 89%
- adhesion of COS-7 transfectants to L-M E-cadherin transfectants (Human E-cadherin (human) [3]): 81%
- adhesion of α^Eβ7 COS-7 transfectants to L-M monolayers (Human E-cadherin (human) [5]): 79%
Substance: α^Eβ7 integrin (from UniProt P38570) (receptor)

From patent publication US7029676B2
